Positions count from the first letter of the chain named.
T1: human iRhom2 (inactive rhomboid protein 2, isoform 1), endogenously expressed on human cells (human, UniProt Q6PJF5 1-856)
T1 sequence: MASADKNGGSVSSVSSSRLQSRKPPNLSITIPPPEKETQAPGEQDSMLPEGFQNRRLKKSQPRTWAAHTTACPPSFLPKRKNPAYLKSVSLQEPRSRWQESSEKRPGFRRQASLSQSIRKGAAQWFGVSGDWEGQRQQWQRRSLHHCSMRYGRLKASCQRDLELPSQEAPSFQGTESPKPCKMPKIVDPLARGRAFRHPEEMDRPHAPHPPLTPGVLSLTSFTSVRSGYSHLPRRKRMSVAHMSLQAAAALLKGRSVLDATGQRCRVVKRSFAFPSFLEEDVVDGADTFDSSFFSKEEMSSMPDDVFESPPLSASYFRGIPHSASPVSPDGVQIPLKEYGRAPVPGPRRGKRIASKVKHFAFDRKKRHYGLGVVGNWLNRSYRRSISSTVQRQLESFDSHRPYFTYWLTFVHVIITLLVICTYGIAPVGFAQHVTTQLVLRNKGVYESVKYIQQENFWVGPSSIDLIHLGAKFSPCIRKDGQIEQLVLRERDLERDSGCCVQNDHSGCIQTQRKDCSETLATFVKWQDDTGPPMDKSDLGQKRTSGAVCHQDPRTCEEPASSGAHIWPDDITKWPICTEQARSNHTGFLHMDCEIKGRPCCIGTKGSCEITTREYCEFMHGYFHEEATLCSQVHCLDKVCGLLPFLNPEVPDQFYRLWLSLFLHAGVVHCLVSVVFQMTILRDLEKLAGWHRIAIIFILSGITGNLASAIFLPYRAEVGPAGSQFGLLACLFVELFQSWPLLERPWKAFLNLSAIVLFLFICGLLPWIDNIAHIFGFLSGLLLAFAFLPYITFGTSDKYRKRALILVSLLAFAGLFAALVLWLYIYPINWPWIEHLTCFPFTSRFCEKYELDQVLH

T2: dog iRhom2 full length wild type, C-terminally tagged with 3 consecutive copies of the T7 epitope (dog, UniProt Q00M95 1-827)
T2 construct: whole, on cells; also called Dog-iR2-FL-WT-T7
T2 sequence: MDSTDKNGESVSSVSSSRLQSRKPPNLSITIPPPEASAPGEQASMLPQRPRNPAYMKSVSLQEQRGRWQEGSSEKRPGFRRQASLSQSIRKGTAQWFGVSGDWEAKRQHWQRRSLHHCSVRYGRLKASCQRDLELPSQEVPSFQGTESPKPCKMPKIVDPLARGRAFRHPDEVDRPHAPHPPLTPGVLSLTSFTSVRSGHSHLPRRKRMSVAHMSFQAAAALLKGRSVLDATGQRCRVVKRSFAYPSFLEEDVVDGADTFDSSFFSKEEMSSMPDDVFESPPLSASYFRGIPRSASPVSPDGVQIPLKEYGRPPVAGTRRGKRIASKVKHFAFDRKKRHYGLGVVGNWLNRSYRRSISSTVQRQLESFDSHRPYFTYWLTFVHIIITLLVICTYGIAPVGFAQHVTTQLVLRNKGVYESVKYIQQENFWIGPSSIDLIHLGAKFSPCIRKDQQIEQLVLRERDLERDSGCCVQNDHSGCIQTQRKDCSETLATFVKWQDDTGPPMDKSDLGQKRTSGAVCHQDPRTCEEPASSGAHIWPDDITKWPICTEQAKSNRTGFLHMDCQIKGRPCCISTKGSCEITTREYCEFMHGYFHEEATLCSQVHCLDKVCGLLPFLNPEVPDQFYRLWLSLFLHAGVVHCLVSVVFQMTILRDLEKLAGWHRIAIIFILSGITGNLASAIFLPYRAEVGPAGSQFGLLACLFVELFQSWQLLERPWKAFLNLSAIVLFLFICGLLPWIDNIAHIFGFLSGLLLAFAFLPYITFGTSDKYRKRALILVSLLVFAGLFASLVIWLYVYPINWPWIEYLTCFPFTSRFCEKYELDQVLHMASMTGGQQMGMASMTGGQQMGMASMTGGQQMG

B1: antibody 57 (antibody, V domains shown)
VH: QVTLKESGPGILQPSQTLSLTCSFSGFSLSTFGMGVGWIRQPSGKGLEWLAHIWWDDDKYYNPALKSRLTISKDTSKNQIFLKIANVDTADSATFYCARIENYGSNYWYFDVWGTGTTVTVSS
VL: QIVLTQSPAIMSASPGEKVTMTCSASSSVSYMYWYQQKPGSSPRVLIYDTSNLASGVPVRFSGSGSGTSYSLTVSRMEAEDAATYYCQQWNSYPLTFGAGTKLELK
notes: Mouse IgG, kappa light chain; also called clone #57
B2: antibody 49 (antibody, V domains shown)
VH: B1 VH with K66Q, I71V, S76A, I80V, S92T, T94I, F95Y, I100V, E101G, D111A
VL: B1 VL with V45L, V74I
notes: Mouse IgG, kappa light chain; also called clone #49
B3: antibody 56 (antibody, V domains shown)
VH: B1 VH with A51T, H52N, P63S, A64V, I80V, S92T, F95Y, E101A, N102A
VL: B1 VL with A54S, V74I, N91S
notes: Mouse IgG, kappa light chain; also called clone #56
B4: antibody 54 (antibody, V domains shown)
VH: B1 VH with M34L, W49C, Y61S, I80V, T89S, S92T, F95Y, Y96F, E101L
VL: B1 VL with I10L, V29I, V45L, Y70F
notes: Mouse IgG, kappa light chain; also called clone #54

What was measured:
[1] = biological target: T1, human iRhom2 (inactive rhomboid protein …); experiment: cell-based or functional assay
[2] = biological target: T2, dog iRhom2 full length wild type, …; experiment: FACS, MEF-DKO-Dog-iR2-FL-WT-T7 cells
Method: In brief, immortalized MEF-DKO-EV control cells, MEF-DKO-rhesus-iR2-FL-WT-T7 cells, MEF-DKO-cyno-iR2-FL-WT-T7 cells, MEF-DKO-dog-iR2-FL-WT-T7 cells and MEF-DKO-rabbit-iR2-FL-WT-T7 cells, as well as their respective iRhom1 counterparts, were harvested with 10 mM EDTA in PBS, washed and resuspended in FACS buffer (PBS, 3% FBS, 0.05% sodium azide), and seeded in Nunc U-bottom 96-well plates (Thermo Fisher Scientific, USA) at approximately 3×10⁵ cells per well. To pellet cells and remove supernatants, the plates were centrifuged at 1,500 rpm and 4° C. for 3 minutes. For primary staining, cells were resuspended in 100 μl per well of either FACS buffer alone (controls), mouse monoclonal anti-T7 IgG (Merck Millipore, USA) at 3 μg/ml FACS buffer or the antibodies of the present disclosure also at 3 μg/ml FACS buffer and incubated on ice for 1 hour. Afterwards, plates were centrifuged at 1,500 rpm and 4° C. for 3 minutes and washed twice with 200 μl per well of FACS buffer. For secondary staining, cells were spun down and resuspended in 100 μl per well of PE-conjugated goat anti-mouse IgG F(ab′)2 detection fragment (Dianova, Germany) diluted 1:100 in FACS buffer. Protected from light, the cell suspensions were incubated on ice for 1 hour. Plates were then centrifuged at 1,500 rpm and 4° C. for 3 minutes and washed three times with 200 μl per well of FACS buffer. Finally, cells were resuspended in 150 μl per well of FACS buffer and analyzed using a BD Accuri™ C6 Plus flow cytometer (Becton Dickinson, Germany).

Binder | inhibition of LPS-induced release of TNFα from THP-1 cells, recombinant antibody [1] [% inhibition] | binding result [2]
B1 | 59.7 | binds
B2 | 59.9 | binds
B3 | 65.8 | binds
B4 | 67.9 | binds

From patent US20240174744A1 (SCIRHOM, published 2024)
